Source: patent US20100111995A1

Biological target: CCR5 expressed on the cell surface (CEM.NKR-CCR5 cells; stimulated CD4+ T cells; CEM 5.25.EGFP.luc.M7 cells) (human) (UniProt P51681)
Assay: cell-based or functional assay

Which Antibody concentrations inhibiting HIV, 50% inhibition does the source give for “RANTES (from UniProt P13501 24-91) (ligand)” here?
The Antibody concentrations inhibiting HIV, 50% inhibition was 5.8 ng/mL.

What about the Antibody concentrations inhibiting HIV, 70% inhibition of the same substance?
Its Antibody concentrations inhibiting HIV, 70% inhibition is 14.7 ng/mL.
